Assay results from patent US20190135934A1 (published 2019).

Biological target: T1, CD20 protein on CD20 protein-positive lymphoma cell Raji (ATCC CCL-86) (UniProt P11836 1-297, limits assumed)
T1 construct: whole, on cells; The target is native CD20 on Raji cells; also called CD20 antigen
T1 sequence (looked up): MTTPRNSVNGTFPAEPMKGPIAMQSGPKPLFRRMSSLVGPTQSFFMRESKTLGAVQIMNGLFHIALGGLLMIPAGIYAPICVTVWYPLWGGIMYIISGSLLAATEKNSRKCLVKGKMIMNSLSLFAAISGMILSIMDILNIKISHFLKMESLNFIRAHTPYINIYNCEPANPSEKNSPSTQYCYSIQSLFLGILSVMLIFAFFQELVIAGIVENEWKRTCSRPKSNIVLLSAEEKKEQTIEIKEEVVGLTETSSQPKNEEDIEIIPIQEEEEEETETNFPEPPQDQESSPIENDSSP
Experiment: flow cytometry, fluorescently labeled antibody on Raji cells
Protocol: Briefly, after diluted in equal concentration proportions, the purified fluorescently labeled antibody was incubated with the CD20 protein-positive lymphoma cell Raji (ATCC CCL-86) for 45 minutes on ice, and then washed twice and subjected to flow cytometry. The binding activity of the antibody was further evaluated based on the change in fluorescence intensity of the antibody after binding to the cells at different antibody concentrations.

B1: novel CD20 antibody H102YH (antibody, human IgG1, V domains shown)
VH: QVQLQQPGAELVKPGASVKMSCKASGYTFTSYNMHWVKQTPGRGLEWIGAIYPGNGDTSYNQKFKGKATLTADKSSSTAYMQLSSLTSEDSAVYYCARSTYHGGDWYFNVWGAGTTVTVSA
VL: QIVLSQSPAILSASPGEKVTMTCRASSSVSYIHWFQQKPGSSPKPWIYATSNLASGVPVRFSGSGSGTSYSLTISRVEAEDAATYYCQQWTSNPPTFGGGTKLEIKV
binding result: binds

B2: novel CD20 antibody H102YL (antibody, human IgG1, V domains shown)
VH: QVQLQQPGAELVKPGASVKMSCKASGYTFTSYNMHWVKQTPGRGLEWIGAIYPGNGDTSYNQKFKGKATLTADKSSSTAYMQLSSLTSEDSAVYYCARSTYLGGDWYFNVWGAGTTVTVSA
VL: QIVLSQSPAILSASPGEKVTMTCRASSSVSYIHWFQQKPGSSPKPWIYATSNLASGVPVRFSGSGSGTSYSLTISRVEAEDAATYYCQQWTSNPPTFGGGTKLEIKV
binding result: binds

B3: novel CD20 antibody H102YM (antibody, human IgG1, V domains shown)
VH: QVQLQQPGAELVKPGASVKMSCKASGYTFTSYNMHWVKQTPGRGLEWIGAIYPGNGDTSYNQKFKGKATLTADKSSSTAYMQLSSLTSEDSAVYYCARSTYMGGDWYFNVWGAGTTVTVSA
VL: QIVLSQSPAILSASPGEKVTMTCRASSSVSYIHWFQQKPGSSPKPWIYATSNLASGVPVRFSGSGSGTSYSLTISRVEAEDAATYYCQQWTSNPPTFGGGTKLEIKV
binding result: binds

B4: novel CD20 antibody H102YN (antibody, human IgG1, V domains shown)
VH: QVQLQQPGAELVKPGASVKMSCKASGYTFTSYNMHWVKQTPGRGLEWIGAIYPGNGDTSYNQKFKGKATLTADKSSSTAYMQLSSLTSEDSAVYYCARSTYNGGDWYFNVWGAGTTVTVSA
VL: QIVLSQSPAILSASPGEKVTMTCRASSSVSYIHWFQQKPGSSPKPWIYATSNLASGVPVRFSGSGSGTSYSLTISRVEAEDAATYYCQQWTSNPPTFGGGTKLEIKV
binding result: binds

B5: novel CD20 antibody H102YQ (antibody, human IgG1, V domains shown)
VH: QVQLQQPGAELVKPGASVKMSCKASGYTFTSYNMHWVKQTPGRGLEWIGAIYPGNGDTSYNQKFKGKATLTADKSSSTAYMQLSSLTSEDSAVYYCARSTYQGGDWYFNVWGAGTTVTVSA
VL: QIVLSQSPAILSASPGEKVTMTCRASSSVSYIHWFQQKPGSSPKPWIYATSNLASGVPVRFSGSGSGTSYSLTISRVEAEDAATYYCQQWTSNPPTFGGGTKLEIKV
binding result: binds

B6: novel CD20 antibody H102YR (antibody, human IgG1, V domains shown)
VH: QVQLQQPGAELVKPGASVKMSCKASGYTFTSYNMHWVKQTPGRGLEWIGAIYPGNGDTSYNQKFKGKATLTADKSSSTAYMQLSSLTSEDSAVYYCARSTYRGGDWYFNVWGAGTTVTVSA
VL: QIVLSQSPAILSASPGEKVTMTCRASSSVSYIHWFQQKPGSSPKPWIYATSNLASGVPVRFSGSGSGTSYSLTISRVEAEDAATYYCQQWTSNPPTFGGGTKLEIKV
binding result: binds

B7: novel CD20 antibody H102YS (antibody, human IgG1, V domains shown)
VH: QVQLQQPGAELVKPGASVKMSCKASGYTFTSYNMHWVKQTPGRGLEWIGAIYPGNGDTSYNQKFKGKATLTADKSSSTAYMQLSSLTSEDSAVYYCARSTYSGGDWYFNVWGAGTTVTVSA
VL: QIVLSQSPAILSASPGEKVTMTCRASSSVSYIHWFQQKPGSSPKPWIYATSNLASGVPVRFSGSGSGTSYSLTISRVEAEDAATYYCQQWTSNPPTFGGGTKLEIKV
binding result: binds

B8: novel CD20 antibody H102YV (antibody, human IgG1, V domains shown)
VH: QVQLQQPGAELVKPGASVKMSCKASGYTFTSYNMHWVKQTPGRGLEWIGAIYPGNGDTSYNQKFKGKATLTADKSSSTAYMQLSSLTSEDSAVYYCARSTYVGGDWYFNVWGAGTTVTVSA
VL: QIVLSQSPAILSASPGEKVTMTCRASSSVSYIHWFQQKPGSSPKPWIYATSNLASGVPVRFSGSGSGTSYSLTISRVEAEDAATYYCQQWTSNPPTFGGGTKLEIKV
binding result: binds
